Source: patent US20070161569A1 (GENERAL HOSPITAL, published 2007)
Non-standard residues stand in square brackets, D forms with d. No end group written: not given here. hArg = N=C(N)NCCCC[C@H](N)C(=O)O; Ac5c = NC1(C(=O)O)CCCC1; Deg = CCC(N)(CC)C(=O)O; Ac3c = NC1(C(=O)O)CC1; Aib = CC(C)(N)C(=O)O

Assays:
[1] = biological target: T1, recombinant P1R chimera expressed in HKRK-B28 cells (opossum P1R from the N-terminus to the mid region of … (opossum; rat, UniProt P25107 27-288; P25961 295-591, limits assumed); test: cell-based or functional assay
T1 sequence (P25107 other isoform, or with tags, fused parts or gaps limits assumed): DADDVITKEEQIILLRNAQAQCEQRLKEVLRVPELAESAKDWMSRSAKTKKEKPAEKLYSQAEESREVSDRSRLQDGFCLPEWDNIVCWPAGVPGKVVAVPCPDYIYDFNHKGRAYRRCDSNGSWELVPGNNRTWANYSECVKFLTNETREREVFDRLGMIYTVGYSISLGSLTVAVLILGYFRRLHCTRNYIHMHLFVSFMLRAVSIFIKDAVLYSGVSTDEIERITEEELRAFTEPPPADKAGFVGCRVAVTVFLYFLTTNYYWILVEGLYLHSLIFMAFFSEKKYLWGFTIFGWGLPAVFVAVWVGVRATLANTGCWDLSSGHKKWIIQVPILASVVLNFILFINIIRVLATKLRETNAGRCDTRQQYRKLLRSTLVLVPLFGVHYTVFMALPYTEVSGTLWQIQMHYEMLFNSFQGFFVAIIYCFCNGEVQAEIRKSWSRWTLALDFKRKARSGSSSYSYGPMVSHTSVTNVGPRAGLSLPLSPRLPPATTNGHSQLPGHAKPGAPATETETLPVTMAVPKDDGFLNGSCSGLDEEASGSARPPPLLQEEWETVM

[2] = biological target: T1, recombinant P1R chimera expressed in …; test: competition binding on B28 cells against 125I-PTH(1-21) tracer (SEQ ID NO 36)
Procedure: (§1) Competition Binding. Binding reactions were performed with HKRK-B28 cells or in COS-7 cells in 24-well plates. The cells were rinsed with 0.5 mL of binding buffer, and then treated successively with 100 μL binding buffer, 100 μL of binding buffer containing various amounts of unlabeled competitor ligand, and 100 μL of binding buffer containing ca. 100,000 cpm of ¹²⁵I-[Aib^{1,3},Nle⁸,Gln¹⁰,Har¹¹,Ala¹²,Trp¹⁴,Arg¹⁹,Tyr²¹]rPTH(1-21) (SEQ. ID. NO. 36) (ca. 26 fmol; final volume=300 μL). Incubations were 4 to 6 h at 4° C., at which time near equilibrium conditions were attained. Cells were then placed on ice, the binding medium was removed, and the monolayer was rinsed three times with 0.5 mL of cold binding buffer. The cells were subsequently lysed with 0.5 mL 5N NaOH and counted for radioactivity. For each tracer and in each experiment, the non-specific binding was determined as the radioactivity that bound in the presence of the same unlabeled peptide at a concentration of 1 μM, and was ˜1% of total radioactivity added for each tracer. The maximum specific binding (B₀) was the total radioactivity bound in the absence of competing ligand, corrected for nonspecific binding, and for each tracer, ranged from 8% to 20% of the total radioactivity added. Nonlinear regression was used to calculate binding IC₅₀ values (see below). Scatchard transformations of homologous competition binding data derived from studies with 26 fmol of ¹²⁵I-[Aib^{1,3},Nle⁸,Gln¹⁰,Har¹¹,Ala¹²,Trp¹⁴, Arg¹⁹,Tyr²¹]rPTH(1-21) (SEQ. ID. NO. 36) were employed for estimations of apparent equilibrium dissociation constant (kDapps) and total number of ligand binding sites (Bₘₐₓ), assuming a single class of binding sites and equal affinities of the iodinated and non iodinated ligand.

[3] = biological target: T1, recombinant P1R chimera expressed in …; test: competition binding on HKRK-B28 cells against 125I-PTH(1-21) tracer (SEQ ID NO 36)
Procedure: as §1, with “Incubations” for “Competition Binding. Binding reactions were performed with HKRK-B28 cells or in COS-7 cells in 24-well plates. The cells were rinsed with 0.5 mL of binding buffer, and then treated successively with 100 μL binding buffer, 100 μL of binding buffer containing various amounts of unlabeled competitor ligand, and 100 μL of binding buffer containing ca. 100,000 cpm of ¹²⁵I-[Aib^{1,3},Nle⁸,Gln¹⁰,Har¹¹,Ala¹²,Trp¹⁴,Arg¹⁹,Tyr²¹]rPTH(1-21) (SEQ. ID. NO. 36) (ca. 26 fmol; final volume=300 μL). Incubations”, “ligand. […]” for “ligand.”

[4] = biological target: T2, P1R-delNt, a recombinant human PTH-1 receptor construct in which most of the amino-terminal extracellular … (human, UniProt Q03431 23-593, limits assumed); test: cell-based or functional assay
T2 sequence (looked up): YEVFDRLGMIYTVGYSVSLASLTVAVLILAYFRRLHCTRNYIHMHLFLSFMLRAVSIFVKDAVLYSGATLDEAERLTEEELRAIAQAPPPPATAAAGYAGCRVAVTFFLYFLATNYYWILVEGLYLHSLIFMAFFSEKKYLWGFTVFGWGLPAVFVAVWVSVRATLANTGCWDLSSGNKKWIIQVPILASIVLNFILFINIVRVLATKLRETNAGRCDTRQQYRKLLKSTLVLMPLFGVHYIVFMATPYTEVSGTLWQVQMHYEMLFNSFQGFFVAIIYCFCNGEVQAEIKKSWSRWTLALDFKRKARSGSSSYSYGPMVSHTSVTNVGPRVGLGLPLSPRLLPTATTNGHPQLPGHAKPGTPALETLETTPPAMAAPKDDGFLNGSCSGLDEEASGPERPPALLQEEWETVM

[5] = biological target: T1, recombinant P1R chimera expressed in …; test: competition binding to the P1R (HKRK-B28 cells by the FIG. 3 legend)
Procedure: as §1, with “Scatchard transformations of homologous competition binding data derived from studies with 26 fmol of ¹²⁵I-[Aib^{1,3},Nle⁸,Gln¹⁰,Har¹¹,Ala¹²,Trp¹⁴, Arg¹⁹,Tyr²¹]rPTH(1-21) (SEQ. ID. NO. 36) were employed for estimations of apparent equilibrium dissociation constant (kDapps) and total number of ligand binding sites (Bₘₐₓ), assuming a single class of binding sites and equal affinities of the iodinated and non iodinated ligand.” left out

[6] = biological target: T3, wild-type human P1R transiently expressed in COS-7 cells (human, UniProt Q03431 27-593); test: cell-based or functional assay
T3 sequence (looked up): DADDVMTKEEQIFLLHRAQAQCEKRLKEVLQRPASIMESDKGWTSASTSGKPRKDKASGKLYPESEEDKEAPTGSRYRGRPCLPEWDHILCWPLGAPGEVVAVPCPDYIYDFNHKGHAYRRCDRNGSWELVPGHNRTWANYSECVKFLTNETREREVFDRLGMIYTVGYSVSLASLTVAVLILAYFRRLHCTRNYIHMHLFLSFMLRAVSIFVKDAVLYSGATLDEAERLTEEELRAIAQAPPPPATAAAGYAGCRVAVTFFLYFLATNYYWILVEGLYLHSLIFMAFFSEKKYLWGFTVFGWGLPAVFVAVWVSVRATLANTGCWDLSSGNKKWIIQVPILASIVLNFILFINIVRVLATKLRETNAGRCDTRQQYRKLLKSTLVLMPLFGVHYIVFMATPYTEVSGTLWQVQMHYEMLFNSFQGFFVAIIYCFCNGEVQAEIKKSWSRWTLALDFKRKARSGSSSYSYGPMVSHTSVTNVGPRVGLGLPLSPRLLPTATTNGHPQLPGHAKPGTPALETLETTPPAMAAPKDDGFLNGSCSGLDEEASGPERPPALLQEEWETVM

B1: [M]PTH(1-14) analog in which alanine-3 is substituted with 1-aminocyclopropane-1-carboxylic acid (Ac3c) (peptide)
peptide: AV[Ac3c]EIQLMHQ[hArg]AKW-NH2
modifications: N-terminus assumed
SMILES: CC[C@H](C)[C@H](NC(=O)[C@H](CCC(=O)O)NC(=O)C1(NC(=O)[C@@H](NC(=O)[C@H](C)N)C(C)C)CC1)C(=O)N[C@@H](CCC(N)=O)C(=O)N[C@@H](CC(C)C)C(=O)N[C@@H](CCSC)C(=O)N[C@@H](Cc1c[nH]cn1)C(=O)N[C@@H](CCC(N)=O)C(=O)N[C@@H](CCCCNC(=N)N)C(=O)N[C@@H](C)C(=O)N[C@@H](CCCCN)C(=O)N[C@@H](Cc1c[nH]c2ccccc12)C(N)=O
notes: also called Ac3c^3-containing analog; Ac3c-3
**Q.** Which results are given for B1?
**A.** cAMP-stimulating potency, fold increase over the parent analog [1]: < 2 fold; fold lower affinity than [M]PTH(1-14) [2]: 14 fold; fold reduced affinity relative to the parent analog [3]: ~10 fold

B2: [Deg^1,3,Gln^10,Har^11,Ala^12,Trp^14]PTH(1-14)NH2 (peptide)
peptide: [Deg]V[Deg]EIQLMHQ[hArg]AKW-NH2
modifications: N-terminus assumed
SMILES: CC[C@H](C)[C@H](NC(=O)[C@H](CCC(=O)O)NC(=O)C(CC)(CC)NC(=O)[C@@H](NC(=O)C(N)(CC)CC)C(C)C)C(=O)N[C@@H](CCC(N)=O)C(=O)N[C@@H](CC(C)C)C(=O)N[C@@H](CCSC)C(=O)N[C@@H](Cc1c[nH]cn1)C(=O)N[C@@H](CCC(N)=O)C(=O)N[C@@H](CCCCNC(=N)N)C(=O)N[C@@H](C)C(=O)N[C@@H](CCCCN)C(=O)N[C@@H](Cc1c[nH]c2ccccc12)C(N)=O
notes: also called [Deg^1,3,M]PTH(1-14)
**Q.** B2 was tested. Which “cAMP EC50 in LdelNt-2 cells” value [4] did it give?
**A.** 1400 nM

**Q.** And the “cAMP Emax over basal in LdelNt-2 cells (partial agonist behavior)” value [4]?
**A.** 23 fold

**Q.** And the “fold higher affinity than the parent peptide” value [5]?
**A.** 50 fold

**Q.** [Ac5c]V[Aib]EIQLMHQ[hArg]AKW-NH2 (also called [Ac5c^1,Aib^3,M]PTH(1-14)) [[Ac5c^1,Aib^3,Gln^10,Har^11,Ala^12,Trp^14]PTH(1-14)NH2] was tested. Which “cAMP potency (EC50)” value [1] did it give?
**A.** 0.9 nM

**Q.** And the “increase in cAMP levels relative to basal, peptide at 10 nM, HKRK-B28 cells” value [1]?
**A.** 38 fold

**Q.** What about the “stimulating adenylyl cyclase, fold more potent than [Aib^1,3,M]PTH(1-14)” value [1] of the same binder?
**A.** 2 fold

**Q.** What about the “stimulating phospholipase C, fold more potent than [Aib^1,3,M]PTH(1-14)” value [6] of the same binder?
**A.** 2 fold

**Q.** What about the “cAMP EC50 in LdelNt-2 cells” value [4] of the same binder?
**A.** 6.4 nM

**Q.** And the “increase in cAMP accumulation in LdelNt-2 cells” value [4]?
**A.** 70 fold

**Q.** And the IC50 [2]?
**A.** 100 nM

**Q.** What about the “fold more potent than [Aib^1,3,M]PTH(1-14) for inhibiting tracer binding” value [2] of the same binder?
**A.** 2 fold

**Q.** What does the source list for [Ac5c]V[Ac5c]EIQLMHQ[hArg]AKW-NH2 (also called [Ac5c^1,3,M]PTH(1-14)) [[Ac5c^1,3,Gln^10,Har^11,Ala^12,Trp^14]PTH(1-14)NH2]?
**A.** cAMP signaling, fold more potent than the parent peptide [1]: 30 fold; fold higher affinity than the parent peptide [5]: 20 fold
